This series deals with the molecule itself. As to the kind of experiment: sedimentation velocity AUC, 150 mM NaCl, pH 6.0; self-association.

B1: mouse galactocerebrosidase (mGalC), recombinant (enzyme)
chain: YVLDDSDGLGREFDGIGAVSGGGATSRLLVNYPEPYRSEILDYLFKPNFGASLHILKVEIGGDGQTTDGTEPSHMHYELDENYFRGYEWWLMKEAKKRNPDIILMGLPWSFPGWLGKGFSWPYVNLQLTAYYVVRWILGAKHYHDLDIDYIGIWNERPFDANYIKELRKMLDYQGLQRVRIIASDNLWEPISSSLLLDQELWKVVDVIGAHYPGTYTVWNAKMSGKKLWSSEDFSTINSNVGAGCWSRILNQNYINGNMTSTIAWNLVASYYEELPYGRSGLMTAQEPWSGHYVVASPIWVSAHTTQFTQPGWYYLKTVGHLEKGGSYVALTDGLGNLTIIIETMSHQHSMCIRPYLPYYNVSHQLATFTLKGSLREIQELQVWYTKLGTPQQRLHFKQLDTLWLLDGSGSFTLELEEDEIFTLTTLTTGRKGSYPPPPSSKPFPTNYKDDFNVEYPLFSEAPNFADQTGVFEYYMNNEDREHRFTLRQVLNQRPITWAADASSTISVIGDHHWTNMTVQCDVYIETPRSGGVFIAGRVNKGGILIRSATGVFFWIFANGSYRVTADLGGWITYASGHADVTAKRWYTLTLGIKGYFAFGMLNGTILWKNVRVKYPGHGWAAIGTHTFEFAQFDNFRVEAAR
notes: also called rmGALC; rmGalC
Turning to B1, the binding result is “binds”.

Source of the values: patent US20130295071A1 (SHIRE HUMAN GENETIC THERAPIES, published 2013).
